The labels stand for the following.
B1: CHIP P228S, recombinant, C-terminal His tag (enzyme, human, UniProt Q9UNE7-1 1-303, looked up)
chain: MKGKEEKEGGARLGAGGGSPEKSPSAQELKEQGNRLFVGRKYPEAAACYGRAITRNPLVAVYYTNRALCYLKMQQHEQALADCRRALELDGQSVKAHFFLGQCQLEMESYDEAIANLQRAYSLAKEQRLNFGDDIPSALRIAKKKRWNSIEERRIHQESELHSYLSRLIAAERERELEECQRNHEGDEDDSHVRAQQACIEAKHDKYMADMDELFSQVDEKRKKRDISDYLCGKISFELMREPCITPSGITYDRKDIEEHLQRVGHFDPVTRSPLTQEQLIPNLAMKEVIDAFISENGWVEDY
notes: CHIP (STUB1), human, SCA48-associated U-box variant P228S; source: PD-10 desalting for mass photometry, size exclusion for ubiquitination assays; not shown: His tag, C-terminal, kept
B2: CHIP G33S, recombinant, C-terminal His tag (enzyme, human, UniProt Q9UNE7-1 1-303, looked up)
chain: MKGKEEKEGGARLGAGGGSPEKSPSAQELKEQSNRLFVGRKYPEAAACYGRAITRNPLVAVYYTNRALCYLKMQQHEQALADCRRALELDGQSVKAHFFLGQCQLEMESYDEAIANLQRAYSLAKEQRLNFGDDIPSALRIAKKKRWNSIEERRIHQESELHSYLSRLIAAERERELEECQRNHEGDEDDSHVRAQQACIEAKHDKYMADMDELFSQVDEKRKKRDIPDYLCGKISFELMREPCITPSGITYDRKDIEEHLQRVGHFDPVTRSPLTQEQLIPNLAMKEVIDAFISENGWVEDY
notes: CHIP (STUB1), human, SCA48-associated TPR-domain variant G33S; source: PD-10 desalting for mass photometry, size exclusion for ubiquitination assays; not shown: His tag, C-terminal, kept
B3: CHIP A67T, recombinant, C-terminal His tag (enzyme, human, UniProt Q9UNE7-1 1-303, looked up)
chain: MKGKEEKEGGARLGAGGGSPEKSPSAQELKEQGNRLFVGRKYPEAAACYGRAITRNPLVAVYYTNRTLCYLKMQQHEQALADCRRALELDGQSVKAHFFLGQCQLEMESYDEAIANLQRAYSLAKEQRLNFGDDIPSALRIAKKKRWNSIEERRIHQESELHSYLSRLIAAERERELEECQRNHEGDEDDSHVRAQQACIEAKHDKYMADMDELFSQVDEKRKKRDIPDYLCGKISFELMREPCITPSGITYDRKDIEEHLQRVGHFDPVTRSPLTQEQLIPNLAMKEVIDAFISENGWVEDY
notes: CHIP (STUB1), human, SCA48-associated TPR-domain variant A67T; source: PD-10 desalting for mass photometry, size exclusion for ubiquitination assays
B4: CHIP F37L, recombinant, C-terminal His tag (enzyme, human, UniProt Q9UNE7-1 1-303, looked up)
chain: MKGKEEKEGGARLGAGGGSPEKSPSAQELKEQGNRLLVGRKYPEAAACYGRAITRNPLVAVYYTNRALCYLKMQQHEQALADCRRALELDGQSVKAHFFLGQCQLEMESYDEAIANLQRAYSLAKEQRLNFGDDIPSALRIAKKKRWNSIEERRIHQESELHSYLSRLIAAERERELEECQRNHEGDEDDSHVRAQQACIEAKHDKYMADMDELFSQVDEKRKKRDIPDYLCGKISFELMREPCITPSGITYDRKDIEEHLQRVGHFDPVTRSPLTQEQLIPNLAMKEVIDAFISENGWVEDY
notes: CHIP (STUB1), human, SCA48-associated TPR-domain variant F37L; source: PD-10 desalting for mass photometry, size exclusion for ubiquitination assays
B5: CHIP I53T, recombinant, C-terminal His tag (enzyme, human, UniProt Q9UNE7-1 1-303, looked up)
chain: MKGKEEKEGGARLGAGGGSPEKSPSAQELKEQGNRLFVGRKYPEAAACYGRATTRNPLVAVYYTNRALCYLKMQQHEQALADCRRALELDGQSVKAHFFLGQCQLEMESYDEAIANLQRAYSLAKEQRLNFGDDIPSALRIAKKKRWNSIEERRIHQESELHSYLSRLIAAERERELEECQRNHEGDEDDSHVRAQQACIEAKHDKYMADMDELFSQVDEKRKKRDIPDYLCGKISFELMREPCITPSGITYDRKDIEEHLQRVGHFDPVTRSPLTQEQLIPNLAMKEVIDAFISENGWVEDY
notes: CHIP (STUB1), human, SCA48-associated TPR-domain variant I53T; source: PD-10 desalting for mass photometry, size exclusion for ubiquitination assays
B6: CHIP R241W, recombinant, C-terminal His tag (enzyme, human, UniProt Q9UNE7-1 1-303, looked up)
chain: MKGKEEKEGGARLGAGGGSPEKSPSAQELKEQGNRLFVGRKYPEAAACYGRAITRNPLVAVYYTNRALCYLKMQQHEQALADCRRALELDGQSVKAHFFLGQCQLEMESYDEAIANLQRAYSLAKEQRLNFGDDIPSALRIAKKKRWNSIEERRIHQESELHSYLSRLIAAERERELEECQRNHEGDEDDSHVRAQQACIEAKHDKYMADMDELFSQVDEKRKKRDIPDYLCGKISFELMWEPCITPSGITYDRKDIEEHLQRVGHFDPVTRSPLTQEQLIPNLAMKEVIDAFISENGWVEDY
notes: CHIP (STUB1), human, SCA48-associated U-box variant R241W; source: PD-10 desalting for mass photometry, size exclusion for ubiquitination assays
B7: CHIP P57L, recombinant, C-terminal His tag (enzyme, human, UniProt Q9UNE7-1 1-303, looked up)
chain: MKGKEEKEGGARLGAGGGSPEKSPSAQELKEQGNRLFVGRKYPEAAACYGRAITRNLLVAVYYTNRALCYLKMQQHEQALADCRRALELDGQSVKAHFFLGQCQLEMESYDEAIANLQRAYSLAKEQRLNFGDDIPSALRIAKKKRWNSIEERRIHQESELHSYLSRLIAAERERELEECQRNHEGDEDDSHVRAQQACIEAKHDKYMADMDELFSQVDEKRKKRDIPDYLCGKISFELMREPCITPSGITYDRKDIEEHLQRVGHFDPVTRSPLTQEQLIPNLAMKEVIDAFISENGWVEDY
notes: CHIP (STUB1), human, SCA48-associated TPR-domain variant P57L; source: PD-10 desalting for mass photometry, size exclusion for ubiquitination assays
B8: CHIP R225∗, recombinant, C-terminal His tag (enzyme, human, UniProt Q9UNE7-1 1-224, looked up)
chain: MKGKEEKEGGARLGAGGGSPEKSPSAQELKEQGNRLFVGRKYPEAAACYGRAITRNPLVAVYYTNRALCYLKMQQHEQALADCRRALELDGQSVKAHFFLGQCQLEMESYDEAIANLQRAYSLAKEQRLNFGDDIPSALRIAKKKRWNSIEERRIHQESELHSYLSRLIAAERERELEECQRNHEGDEDDSHVRAQQACIEAKHDKYMADMDELFSQVDEKRKK
notes: CHIP (STUB1), human, SCA48-associated nonsense variant R225∗ (stop in place of R225, U-box domain lost); source: PD-10 desalting for mass photometry, size exclusion for ubiquitination assays

The values that follow come from article PMC13570301, “Domain-dependent uncoupling of the co-chaperone and E3 ubiquitin ligase CHIP underlies heterogeneity in spinocerebellar ataxia 48” (The Journal of Biological Chemistry, 2026).

As a reminder, the stoichiometry N is the number of molecules, sites or subunits per partner or assembly.

One data set deals with the molecule itself. Nature of the data set: mass photometry; Refeyn OneMP; CHIP at 50 nM final (a subset also at 20 nM and 100 nM) in 20 mM HEPES pH 8.0, 200 mM NaCl; self-association, oligomeric states by mass.
As for B1, the binding result was “binds”.
On the same count and under the same terms, under B2 stands “binds”.
Turning to B3, the binding result is listed as “binds”.
The same measure, in the same setting: the value for B4 was “binds”.
Still for that read-out and setting: under B5 stands “binds”.
The same measure, in the same setting: the value for B6 was “binds”; that for B7 was “binds”.

The next data set deals with the molecule itself. The description is as above. The source holds these as a separate data set.
In the case of B8, the “stoichiometry N” value was 2.
